Assay results published in article PMC11748629, “Unidirectional MCM translocation away from ORC drives origin licensing” (Nature Communications, 2025).

T1: Mcm2 (Saccharomyces cerevisiae, UniProt P29469 1-868)
T1 construct: Mcm2, S. cerevisiae; Subunit of m7, written alone for the contacts seen in OC1M^Mcm5RA; also called Mcm2 subunit of MCM; source: S. cerevisiae strain yGC226, purified as a subunit of MCM-Cdt1
T1 sequence: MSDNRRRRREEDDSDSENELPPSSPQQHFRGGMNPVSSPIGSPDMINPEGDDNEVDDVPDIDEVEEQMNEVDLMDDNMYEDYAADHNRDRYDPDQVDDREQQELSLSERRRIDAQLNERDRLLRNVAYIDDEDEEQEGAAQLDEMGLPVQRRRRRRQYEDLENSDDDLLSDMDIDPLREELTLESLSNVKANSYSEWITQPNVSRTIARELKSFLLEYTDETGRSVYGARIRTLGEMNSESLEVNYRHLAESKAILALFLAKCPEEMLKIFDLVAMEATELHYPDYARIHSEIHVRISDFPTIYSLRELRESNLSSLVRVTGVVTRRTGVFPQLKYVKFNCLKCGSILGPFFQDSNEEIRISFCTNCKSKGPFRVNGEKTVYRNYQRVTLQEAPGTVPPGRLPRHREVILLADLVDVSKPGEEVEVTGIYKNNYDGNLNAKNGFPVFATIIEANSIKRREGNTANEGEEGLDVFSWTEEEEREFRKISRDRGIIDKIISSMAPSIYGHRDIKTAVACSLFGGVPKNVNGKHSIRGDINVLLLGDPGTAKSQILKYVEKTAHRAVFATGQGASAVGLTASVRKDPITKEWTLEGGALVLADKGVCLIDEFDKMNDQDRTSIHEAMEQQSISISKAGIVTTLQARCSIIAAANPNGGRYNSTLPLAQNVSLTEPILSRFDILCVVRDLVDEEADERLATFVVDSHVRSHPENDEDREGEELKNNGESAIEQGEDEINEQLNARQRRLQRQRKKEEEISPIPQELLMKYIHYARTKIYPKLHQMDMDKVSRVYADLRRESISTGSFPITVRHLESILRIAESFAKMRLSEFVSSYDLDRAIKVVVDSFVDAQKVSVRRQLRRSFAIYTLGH

B1: Mcm5 R549A (natural protein, Saccharomyces cerevisiae)
chain: MSFDRPEIYSAPVLQGESPNDDDNTEIIKSFKNFILEFRLDSQFIYRDQLRNNILVKNYSLTVNMEHLIGYNEDIYKKLSDEPSDIIPLFETAITQVAKRISILSRAQSANNNDKDPENTSMDTDSLLLNSLPTFQLILNSNANQIPLRDLDSEHVSKIVRLSGIIISTSVLSSRATYLSIMCRNCRHTTSITINNFNSITGNTVSLPRSCLSTIESESSMANESNIGDESTKKNCGPDPYIIIHESSKFIDQQFLKLQEIPELVPVGEMPRNLTMTCDRYLTNKVIPGTRVTIVGIYSIYNSKNGAGSGRSGGGNGGSGVAIRTPYIKILGIQSDVETSSIWNSVTMFTEEEEEEFLQLSRNPKLYEILTNSIAPSIFGNEDIKKAIVCLLMGGSKKILPDGMRLRGDINVLLLGDPGTAKSQLLKFVEKVSPIAVYTSGKGSSAAGLTASVQRDPMTREFYLEGGAMVLADGGVVCIDEFDKMRDEDRVAIHEAMEQQTISIAKAGITTVLNSRTSVLAAANPIYGRYDDLKSPGDNIDFQTTILSAFDMIFIVKDDHNEERDISIANHVINIHTGNANAMQNQQEENGSEISIEKMKRYITYCRLKCAPRLSPQAAEKLSSNFVTIRKQLLINELESTERSSIPITIRQLEAIIRITESLAKLELSPIAQERHVDEAIRLFQASTMDAASQDPIGGLNQASGTSLSEIRRFEQELKRRLPIGWSTSYQTLRREFVDTHRFSQLALDKALYALEKHETIQLRHQGQNIYRSGV
notes: Mcm5, S. cerevisiae; Subunit of m7, written alone for the contacts seen in OC1M^Mcm5RA; also called Mcm5RA; source: S. cerevisiae strain yGC226, purified as a subunit of MCM-Cdt1

How the values were obtained:
[1] = target: T1, Mcm2; assay: cryo-EM structure; OC1M^Mcm5RA: 30 nM MH-ARS1-MH DNA, 60 nM ORC, 90 nM Cdc6, 60 nM MCM-Cdt1 (Mcm5 R549A), 2 mM ATP; same buffer; 30 °C, 30 min; conformer 1 at 3.7 Å, conformer 2 at 3.4 Å (Orc1 ATPase domain seen only in conformer 1); details: both partners purified
[2] = target: B1; assay: as above; details: both partners purified

Row | binding result [1] | binding result [2] | Binder
1 | binds | – | B1
2 | – | binds | Orc3 (natural protein, Saccharomyces cerevisiae, Orc3, S. cerevisiae; Subunit of m1, written alone for the contacts seen in the structures; also called Orc3 subunit of ORC; source: S. cerevisiae strain ySD-ORC, purified as a subunit of ORC) MSDLNQSKKMNVSEFADAQRSHYTVYPSLPQSNKNDKHIPFVKLLSGKESEVNVEKRWELYHQLHSHFHDQVDHIIDNIEADLKAEISDLLYSETTQKRRCFNTIFLLGSDSTTKIELKDESSRYNVLIELTPKESPNVRMMLRRSMYKLYSAADAEEHPTIKYEDINDEDGDFTEQNNDVSYDLSLVENFKRLFGKDLAMVFNFKDVDSINFNTLDNFIILLKSAFKYDHVKISLIFNINTNLSNIEKNLRQSTIRLLKRNYHKLDVSSNKGFKYGNQIFQSFLDTVDGKLNLSDRFVEFILSKMANNTNHNLQLLTKMLDYSLMSYFFQNAFSVFIDPVNVDFLNDDYLKILSRCPTFMFFVEGLIKQHAPADEILSLLTNKNRGLEEFFVEFLVRENPINGHAKFVARFLEEELNITNFNLIELYHNLLIGKLDSYLDRWSACKEYKDRLHFEPIDTIFQELFTLDNRSGLLTQSIFPSYKSNIEDNLLSWEQVLPSLDKENYDTLSGDLDKIMAPVLGQLFKLYREANMTINIYDFYIAFRETLPKEEILNFIRKDPSNTKLLELAETPDAFDKVALILFMQAIFAFENMGLIKFQSTKSYDLVEKCVWRGI
